The record followed here is patent US7041458B2, “Methods and reagents for determining protein S” (priority 1996, dated 2006).

One experiment addresses T1, free protein S (Homo sapiens, UniProt P07225).
T1 construct: from tissue; host or cells: human plasma
T1 sequence (P07225 42-676): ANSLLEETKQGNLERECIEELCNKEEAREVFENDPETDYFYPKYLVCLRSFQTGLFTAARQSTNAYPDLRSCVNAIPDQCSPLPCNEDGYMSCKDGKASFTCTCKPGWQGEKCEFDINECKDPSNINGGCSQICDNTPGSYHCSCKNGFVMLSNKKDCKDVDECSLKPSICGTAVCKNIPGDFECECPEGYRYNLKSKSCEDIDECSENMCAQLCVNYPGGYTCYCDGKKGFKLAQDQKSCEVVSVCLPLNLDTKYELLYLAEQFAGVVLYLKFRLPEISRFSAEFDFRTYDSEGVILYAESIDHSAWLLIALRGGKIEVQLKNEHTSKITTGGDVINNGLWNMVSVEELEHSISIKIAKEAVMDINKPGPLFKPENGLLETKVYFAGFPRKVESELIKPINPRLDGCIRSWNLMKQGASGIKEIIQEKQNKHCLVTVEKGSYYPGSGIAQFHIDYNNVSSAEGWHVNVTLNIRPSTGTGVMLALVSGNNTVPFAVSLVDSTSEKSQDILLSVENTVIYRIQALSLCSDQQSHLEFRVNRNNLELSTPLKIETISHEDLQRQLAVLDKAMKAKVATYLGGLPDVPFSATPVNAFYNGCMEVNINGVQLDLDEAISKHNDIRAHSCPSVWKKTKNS
As to the kind of experiment: Addition of C4BP to human plasma, free protein S measured with the assay of Example 2. The class given is binding. As to conditions: two-fold molar excess of C4BP compared to free protein S, 1 hour at 37° C. As to the method:
Assay procedure: Aliquots (50 μl) of the sample to be analyzed (for patient plasma usually 1:100 dilutions of plasma, the buffer for dilution being TBS containing 1% BSA, 2 mM calciumchloride and 1 mM benzamidine) were added to the wells of C4BP-microtiter plates and incubated at room temperature for 30 minutes. The wells were then washed with TBS-wash-ing buffer and biotinylated monoclonal antibody HPS54 (diluted 1:1000, corresponding to about 0.1–1 μg/ml, in TBS containing 1% BSA, 2 mM calcium chloride) was added. Unbound HPS54 was washed away with 3×TBS-washing buffer. Peroxidase-conjugated streptavidine (from Dakopatts AS and prepared according to the manufacturers instructions and diluted 1:2500) (50 μl/well) was added and incubated 15 minutes at room temperature before unbound complexes were washed away with 3×TBS-washing buffer. Aliquots (100 μl/well) of the peroxidase substrate OPD (1,2-ortho-phenylene diamine in the form of 2 mg tablets from Dakopatts A/S) at 1.5 mg/ml in 0.1 M citric acid-phosphate buffer, pH 5.0 (prepared according to instructions from Dakopatts) was added together with H2O2 (0.015%). After exactly 5 minutes, the reaction was stopped by 100 μl/well of 1 M H2SO4 and the absorbance was measured at 490 nm.
To test the specificity of the assay for free protein S, two different experiments were performed. […]

For the next experiment, the target named is T2, protein S (Homo sapiens, UniProt P07225).
T2 sequence (P07225 42-676): T1 sequence (P07225 42-676)
Description: Binding of protein S to the binding site on C4BPβ in the presence of physiological calcium. As to the method:
Even though it is possible to design C4BP-like molecules which could be very efficient as catching ligands in assays for free protein S, suitable embodiments of the invention are based on use of the entire C4BP molecule or, rather, C4BP species comprising the β-chain, i.e. C4BPβ, as ligands in such assays. Since the binding site on C4BPβ binds protein S with very high affinity (KD=0.1 nM) in the presence of physiological calcium concentrations, the association rate constant in the presence of calcium ions being high (almost 10^5 M^−1 s−^1) and the dissociation rate constant being low (approximately 5×10^−4 s−^1), C4BPβ (containing an unoccupied protein S binding site on the β-chain) is a highly specific and efficient ligand for free protein S and is able to specifically bind to free protein S in a solution containing both free protein S and PS:C4BP complexes.

B1: C4BPβ: species of C4b-binding protein containing the protein S binding β-chain, isolated from human plasma (protein)
chain 1: NCGPPPTLSFAAPMDITLTETRFKTGTTLKYTCLPGYVRSHSTQTLTCNSDGEWVYNTFCIYKRCRHPGELRNGQVEIKTDLSFGSQIEFSCSEGFFLIGSTTSRCEVQDRGVGWSHPLPQCEIVKCKPPPDIRNGRHSGEENFYAYGFSVTYSCDPRFSLLGHASISCTVENETIGVWRPSPPTCEKITCRKPDVSHGEMVSGFGPIYNYKDTIVFKCQKGFVLRGSSVIHCDADSKWNPSPPACEPNSCINLPDIPHASWETYPRPTKEDVYVVGTVLRYRCHPGYKPTTDEPTTVICQKNLRWTPYQGCEALCCPEPKLNNGEITQHRKSRPANHCVYFYGDEISFSCHETSRFSAICQGDGTWSPRTPSCGDICNFPPKIAHGHYKQSSSYSFFKEEIIYECDKGYILVGQAKLSCSYSHWSAPAPQCKALCRKPELVNGRLSVDKDQYVEPENVTIQCDSGYGVVGPQSITCSGNRTWYPEVPKCEWETPEGCEQVLTGKRLMQCLPNPEDVKMALEVYKLSLEIEQLELQRDSARQSTLDKEL
chain 2: SDAEHCPELPPVDNSIFVAKEVEGQILGTYVCIKGYHLVGKKTLFCNASKEWDNTTTECRLGHCPDPVLVNGEFSSSGPVNVSDKITFMCNDHYILKGSNRSQCLEDHTWAPPFPICKSRDCDPPGNPVHGYFEGNNFTLGSTISYYCEDRYYLVGVQEQQCVDGEWSSALPVCKLIQEAPKPECEKALLAFQESKNLCEAMENFMQQLKESGMTMEELKYSLELKKAELKAKLL
In the case of B1, the “drop in free protein S” value with free protein S is reported as 90%. Also, in the experiment with protein S (presence of calcium ions), the association rate constant is given as ~10^5 M^−1 s−^1 and the dissociation rate constant result is on record as “approximately 5×10^−4 s−^1”. The dissociation constant Kd with protein S (presence of physiological calcium concentrations) stood at 0.1 nM.
